Paper PMC5458804 (Nature cell biology, 2017)
One block for each molecule: values may come before it.

Columns and labels:
[1] = molecular target: p60N/p80C heterodimer (mouse) (UniProt Q9WV86); experiment: AUC
[2] = molecular target: p60N/p80C heterodimer (mouse) (UniProt Q9WV86); experiment: crystal structure
[3] = molecular target: p80C (C-terminal domain of katanin p80) (mouse, UniProt Q8BG40 481-658); experiment: AUC
p80C-S538L = p80C-S538L (mouse, UniProt Q8BG40 481-658, S538L); experiment: AUC
p80C-S538L, sequence (Q8BG40 481-658 S538L): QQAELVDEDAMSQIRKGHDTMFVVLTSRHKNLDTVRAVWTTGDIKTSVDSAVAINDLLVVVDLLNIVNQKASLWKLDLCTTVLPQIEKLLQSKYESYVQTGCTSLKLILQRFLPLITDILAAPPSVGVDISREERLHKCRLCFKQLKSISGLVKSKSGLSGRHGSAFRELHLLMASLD

p80C-Y574A = p80C-Y574A (mouse, UniProt Q8BG40 481-658, Y574A); experiment: AUC
p80C-Y574A, sequence (Q8BG40 481-658 Y574A): as the sequence (Q8BG40 481-658 S538L) above, with L58S, Y94A counted along it

p80C-R615A = p80C-R615A (mouse, UniProt Q8BG40 481-658, R615A); experiment: AUC
p80C-R615A, sequence (Q8BG40 481-658 R615A): as the sequence (Q8BG40 481-658 S538L) above, with L58S, R135A counted along it

p80C (C-terminal domain of katanin p80), sequence (Q8BG40 481-658): as the sequence (Q8BG40 481-658 S538L) above, with L58S counted along it

Kd [1]: 9 µM
Molecule: TAMRA-labeled ASPMp peptide

stoichiometry N [2]: 1
Molecule: ASPMp (peptide corresponding to the third repeat of ASPM, as crystallised)

binding result [3]: binds
binding result (p80C-S538L): binds
binding result (p80C-Y574A): binds
binding result (p80C-R615A): binds
B1: p60N (N-terminal domain of katanin p60) (domain or fragment)
chain: MSLQMIVENVKLAREYALLGNYDSAMVYYQGVLDQMNKYLYSVKDTHLRQKWQQVWQEINVEAKQVKDIMKTLESFKL

binding result [3]: binds
B2: p60N-L18A (domain or fragment)
chain: MSLQMIVENVKLAREYAALGNYDSAMVYYQGVLDQMNKYLYSVKDTHLRQKWQQVWQEINVEAKQVKDIMKTLESFKL

binding result [3]: binds
B3: p60N-L19A (domain or fragment)
chain: MSLQMIVENVKLAREYALAGNYDSAMVYYQGVLDQMNKYLYSVKDTHLRQKWQQVWQEINVEAKQVKDIMKTLESFKL
